Measured values from patent US20160097044A1, “Antimicrobial Enzyme Fusions Reduce Resistance and Kill Intracellular Staphylococcus aureus” (The United States of America, as Represented by the …, priority 2014, published 2016).
“Also recorded” adds a separate entry of the source.

Columns and labels:
[1] = system: live S. aureus strain Newman cells; assay: Turbidity reduction assay; type: cell-based; details: 30 minute assay, 150 mM NaCl in SLB, FIG. 3d
Source text: FIGS. 3a-3d depict peptidoglycan hydrolase purity and the S. aureus bactericidal assay. […] FIG. 3b is a zymogram analysis using whole S. aureus (Newman) cells embedded within the gel matrix. FIG. 3c is a plate lysis analysis of peptidoglycan hydrolase constructs using live S. aureus (Newman) cell lawns clarified with indicated picomoles of each purified peptidoglycan hydrolase. FIG. 3d is a turbidity reduction analysis showing the linear range of enzyme concentration. A twofold dilution series of each enzyme was used in a 30 minute turbidity reduction assay on live S. aureus strain Newman cells to determine the enzyme concentrations that are within the linear range for each enzyme. Reaction conditions were 150 mM NaCl in SLB. Black, dark grey, light grey, and white bars represent peptidoglycan hydrolase constructs lysostaphin (L), LysK (K), triple fusion K-L, and triple fusion L-K, respectively, as named in FIG. 1a. Values are reported as the maximum rate ΔOD600nm/min±SEM.
SDS-PAGE, zymogram, turbidity reduction and plate lysis assays were performed as described previously (Becker et al. 2009, supra) with minor modifications as follows. For SDS-PAGE and zymogram analysis, one μg of the purified peptidoglycan hydrolase proteins and Kaleidoscope protein standards (Invitrogen, Carlsbad, Calif.) were analyzed by 15% SDS-PAGE. […]

S. aureus Newbould 305 = assay: Murine model of mastitis, bacterial load; type: in vivo, C57BL6/SJL mice; details: single 1.25 nmoles intramammary infusion 30 minutes post infection, 18 h
Protocol: FIG. 6a depicts the specific activity of peptidoglycan hydrolase fusion constructs in vitro in a turbidity reduction assay with S. aureus Newbould 305 resuspended in lysis buffer to an OD600nm of 1.0 and treated with 1 μM final concentrations of each peptidoglycan hydrolase. The maximum specific activity for three experiments are represented as an average with SEM error bars. FIG. 6b depicts the bacterial burden in mice with mastitis treated with recombinant peptidoglycan hydrolases. Colony Forming Units (CFUs) from infected murine mammary glands following a single treatment with 50 μl of 25 μM peptidoglycan hydrolase (1.25 nmol). Each data point represents the average of duplicate bacterial platings. The horizontal bars represent the average CFU/mg for each group. FIG. 6c illustrates the TNFα response in mice with mastitis that were treated with peptidoglycan hydrolases. Data represents a minimum of 7 measurements in duplicate. Log TNFα was used for statistical analysis. Single asterisks indicate a significant difference from buffer control (p<0.05); double asterisks indicate a significant difference from the parental enzyme (p<0.05).
To evaluate the efficacy of purified, individually administered peptidoglycan hydrolases in a murine model of bovine mastitis, female C57BL6/SJL mice were challenged by the intramammary route with 100 CFU S. aureus Newbould 305 in 50 μl buffer. A single 1.25 nmoles intramammary infusion of each desired peptidoglycan hydrolase (50 μl of a 25 μM solution) or 50 μl PBS was given 30 minutes post infection [with up to six glands treated per animal, each gland receiving a unique treatment] as described earlier (Schmelcher et al. 2012. Appl. Environ. Microbiol. 78:2297-2305; Kerr et al. 2001. Nat. Biotechnol. 19:66-70). Dams were euthanized 18 h post infusion, the mammary glands were aseptically dissected, and portions of the gland were used for determination of bacterial load and TNFα concentrations, as described previously (Schmelcher et al., supra).
Statistical analysis: The variables were analyzed as two-factor mixed models with Treatment as the factor and Mouse as random Blocks. This model […] within mouse correlations. Log(TNFα) was used. The variance grouping technique was used for log CFU and log TNFα to correct for variance heterogeneity. Means comparisons were done with Sidak adjusted p-values so that the experiment-wise error was 0.05. Log(TNFα) is back-transformed to the original units for graphing.

[2] = system: post-treatment isolates of S. aureus ALR; assay: Resistance of isolates recovered from nares of treated rats (plate lysis, MIC); type: cell-based
Protocol: The Minimum Inhibitory Concentrations (MIC) of each protein for multiple S. aureus strains was determined as previously described (Jones et al. 1985. In: Manual of Clinical Microbiology, Eds. Balows et al. American Society of Microbiology, Washington D.C., pp. 972-977) with the following modifications. Enzymes were serially diluted two fold across a 96 well plate, such that after dilution, 50 μl of the enzyme solution in 300 mM NaCl, 50 mM NaH2PO4, 30% glycerol pH 7.5, remained in each well. To each well was added 50 μl of TSB and 100 μl of S. aureus Newman in TSB (diluted to 5×10^6 cells/ml). The plates were incubated 20 h at 37° C. and read with a 96 well plate reader. MIC determination values were reported as the median of ≧4 replicates (Table 1).

K-L: both LysK lytic domains fused to the N-terminus of lysostaphin; SEQ ID NO:5, protein SEQ ID NO:6
turbidity reduction activity compared to parental enzymes [1]: as effective as the parental peptidoglycan hydrolases
bacterial load / clearance of mammary glands (in words) (S. aureus Newbould 305): not able to clear the mammary gland bacterial infection more than buffer alone

L: 247 amino acid mature (secreted) lysostaphin, staphylolytic bacteriocin, C-terminal His6 tag; SEQ ID NO:1 [reference compound]
reduction of bacterial load in mammary glands compared to controls (S. aureus Newbould 305): approximately 4 logs

B1: L-K: LysK lytic domains inserted between lysostaphin's M23 endopeptidase domain and SH3b cell wall binding domain; SEQ ID NO:7, protein SEQ ID NO:8 (protein)
chain: MAATHEHSAQWLNNYKKGYGYGPYPLGINGGMHYGVDFFMNIGTPVKAISSGKIVEAGWSNYGGGNQIGLIENDGVHRQWYMHLSKYNVKVGDYVKAGQIIGWSGSTGYSTAPHLHFQRMVNSFSNSTAQDPMPFLKSAGYGKAGGTVTPTPNTGLDAKTQAEINKRLDAYAKGTVDSPYRVKKATSYDPSFGVMEAGAIDADGYYHAQCQDLITDYVLWLTDNKVRTWGNAKDQIKQSYGTGFKIHENKPSTVPKKGWIAVFTSGSYEQWGHIGIVYDGGNTSTFTILEQNWNGYANKKPTKRVDNYYGLTHFIEIPVKAGTTVKKETAKKSASKTPAPKKKATLKVSKNHINYTMDKRGKKPEGMVIHNDAGRSSGQQYENSLANAGYARYANGIAHYYGSEGYVWEAIDAKNQIAWHTGDGTGANSGNFRFAGIEVCQSMSASDAQFLKNEQAVFQFTAEKFKEWGLTPNRKTVRLHMEFVPTACPHRSMVLHTGFNPVTQGRPSQAIMNKLKDYFIKQIKNYMDKGTSSSTVVKDGKTSSASLDTVTPTPNTGWKTNKYGTLYKSESASFTPNTDIITRTTGPFRSMPQSGVLKAGQTIHYDEVMKQDGHVWVGYTGNSGQRIYLPVRTWNKSTNTLGVLWGTIKLEHHHHHH
modifications: Staphylococcus simulans & Phage K
turbidity reduction activity compared to parental enzymes [1]: as effective as the parental peptidoglycan hydrolases
MIC of 8 post-treatment isolates ([2]; isolates from rats treated with triple fusion L-K, N=32): 7.0 ± 2.4 µg/mL
resistance of colonies recovered from nares of treated rats ([2]; plate lysis analysis, N=22 colonies): not more resistant than the parental strain; also recorded: no in vivo resistance development detected
